From article PMC6487875 (Biochemistry, 2018)
Substitutions are numbered along the chain they refer to. In names and notes the source's numbering stands. Several values for one entry are separate records, joined by “and”; a condition that tells them apart may be missing. Identical values can stand only once.

Target: the molecule itself
Experiment: SEC

B1: wild type glutamate oxaloacetate transaminase 1 (WT-GOT1) (enzyme, human, UniProt P17174-1 1-413, looked up)
chain: MAPPSVFAEVPQAQPVLVFKLTADFREDPDPRKVNLGVGAYRTDDCHPWVLPVVKKVEQKIANDNSLNHEYLPILGLAEFRSCASRLALGDDSPALKEKRVGGVQSLGGTGALRIGADFLARWYNGTNNKNTPVYVSSPTWENHNAVFSAAGFKDIRSYRYWDAEKRGLDLQGFLNDLENAPEFSIVVLHACAHNPTGIDPTPEQWKQIASVMKHRFLFPFFDSAYQGFASGNLERDAWAIRYFVSEGFEFFCAQSFSKNFGLYNERVGNLTVVGKEPESILQVLSQMEKIVRITWSNPPAQGARIVASTLSNPELFEEWTGNVKTMADRILTMRSELRARLEALKTPGTWNHITDQIGMFSFTGLNPKQVEYLVNEKHIYLLPSGRINVSGLTTKNLDYVATSIHEAVTKIQ
stoichiometry N: 2 and 4

B2: GOT1 S256A mutant (enzyme, human, UniProt P17174-1 1-413, looked up)
chain: B1 chain with S256A
stoichiometry N: 2

B3: GOT1 T110A mutant (enzyme, human, UniProt P17174-1 1-413, looked up)
chain: B1 chain with T110A
stoichiometry N: 2
